This is an account of results in paper PMC6522503.

For one test, the target named is CDK2 (UniProt P24941). Kind of test: anti-HA co-IP, anti-FLAG blot. The settings on record: reference: wild type p21; sites T55.
For another test, the target named is CDK4 (UniProt P11802). Kind of test: anti-HA co-IP, anti-FLAG blot. The settings on record: reference: wild type p21; sites T55.

With p21 (from UniProt P38936) T55A p21, the “binding against the reference” value with CDK2 and in the test with CDK4 was “weaker” each time.
